Measurements as given in PMC2791020.

What was measured:
[1] = molecular target: protein kinase A catalytic (C) subunit mutant K285P; assay: SPR
[2] = molecular target: protein kinase A catalytic (C) subunit, wild type (UniProt P05132); assay: SPR

Substance | Kd [1] | koff [1] | kon [1] | Kd [2] | koff [2] | kon [2]
RIIβAB, truncated PKA regulatory subunit RIIβ (from UniProt P12369 108-402) (domain or fragment) | 111 nM | 0.0123 s⁻¹ |  |  |  | 
RIαAB, truncated RIα(91–379) containing both cAMP-binding domains (domain or fragment) | 4.9 nM | 0.00443 s⁻¹ | 906000 M⁻¹ s⁻¹ | 0.9 nM | 0.000844 s⁻¹ | 919000 M⁻¹ s⁻¹
